Laboratory results as given in patent US20230348603A1 (VERSEAU THERAPEUTICS, published 2023).

T1: Cynomolgus Monkey VSIG4-L-His (cynomolgus monkey)
T1 construct: ECD with His tag; also called cyVSIG4-L; cyno VSIG4-L-His
T1 chain: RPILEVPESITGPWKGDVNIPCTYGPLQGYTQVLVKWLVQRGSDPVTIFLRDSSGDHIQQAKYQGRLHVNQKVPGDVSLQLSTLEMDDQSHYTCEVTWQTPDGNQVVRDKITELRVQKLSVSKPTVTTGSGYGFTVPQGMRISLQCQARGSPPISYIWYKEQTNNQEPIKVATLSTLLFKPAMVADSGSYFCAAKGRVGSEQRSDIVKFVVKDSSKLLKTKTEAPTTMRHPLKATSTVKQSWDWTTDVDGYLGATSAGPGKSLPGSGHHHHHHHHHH

T2: Human VSIG4-S-His (human, UniProt Q9Y279 20-283)
T2 construct: short isoform ECD with His tag; also called hVSIG4-S; VISG4-S-His
T2 sequence: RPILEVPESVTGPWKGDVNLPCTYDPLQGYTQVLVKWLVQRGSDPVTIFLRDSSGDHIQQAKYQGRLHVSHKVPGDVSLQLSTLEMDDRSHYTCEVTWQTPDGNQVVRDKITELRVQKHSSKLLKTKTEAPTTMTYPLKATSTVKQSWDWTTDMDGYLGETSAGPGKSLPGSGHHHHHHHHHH

T3: Mouse VSIG4-His (mouse)
T3 construct: ECD with His tag; also called mVSIG4
T3 chain: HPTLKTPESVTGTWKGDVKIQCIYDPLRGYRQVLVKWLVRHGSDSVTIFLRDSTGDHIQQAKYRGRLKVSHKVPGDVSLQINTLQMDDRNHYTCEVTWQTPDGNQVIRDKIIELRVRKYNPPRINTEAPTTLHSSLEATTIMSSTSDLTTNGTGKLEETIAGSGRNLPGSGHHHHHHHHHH

T4: Human VSIG4-L-His (human, UniProt Q9Y279 20-283)
T4 construct: long isoform ECD with His tag; also called hVSIG4-L
T4 sequence: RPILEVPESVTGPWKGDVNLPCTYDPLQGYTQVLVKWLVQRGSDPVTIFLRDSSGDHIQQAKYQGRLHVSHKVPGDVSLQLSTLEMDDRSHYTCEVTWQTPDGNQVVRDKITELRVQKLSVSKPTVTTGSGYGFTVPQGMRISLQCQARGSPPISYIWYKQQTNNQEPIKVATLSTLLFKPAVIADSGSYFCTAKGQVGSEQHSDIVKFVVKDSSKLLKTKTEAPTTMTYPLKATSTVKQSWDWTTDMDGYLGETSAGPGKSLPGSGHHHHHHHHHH

T5: Human VSIG4-L-CHO (human VSIG4 long isoform on CHO-K1 cells) (human, UniProt Q9Y279 20-399)
T5 construct: also called hVSIG4-L (flow cytometry)
T5 sequence: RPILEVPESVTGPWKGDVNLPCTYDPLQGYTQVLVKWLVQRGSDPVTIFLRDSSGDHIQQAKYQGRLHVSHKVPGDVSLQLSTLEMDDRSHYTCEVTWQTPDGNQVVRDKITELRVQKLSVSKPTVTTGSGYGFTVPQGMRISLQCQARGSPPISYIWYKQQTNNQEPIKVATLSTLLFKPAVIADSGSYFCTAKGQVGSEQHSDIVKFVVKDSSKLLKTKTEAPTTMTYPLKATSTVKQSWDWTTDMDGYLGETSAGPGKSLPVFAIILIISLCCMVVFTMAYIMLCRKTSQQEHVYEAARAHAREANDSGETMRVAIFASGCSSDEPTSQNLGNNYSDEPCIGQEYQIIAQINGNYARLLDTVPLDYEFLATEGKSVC


Legend:
[1] = biological target: T1, Cynomolgus Monkey VSIG4-L-His; assay: SPR (FJB)
Human VSIG4-L-Fc [2] = biological target: T6, Human VSIG4-L-Fc (human); assay: ligand blocking of C3b, IgG
T6 construct: also called hVSIG4-L-Fc; hVSIG4-L
Target sequence in this assay (chain, as listed by the source limits assumed): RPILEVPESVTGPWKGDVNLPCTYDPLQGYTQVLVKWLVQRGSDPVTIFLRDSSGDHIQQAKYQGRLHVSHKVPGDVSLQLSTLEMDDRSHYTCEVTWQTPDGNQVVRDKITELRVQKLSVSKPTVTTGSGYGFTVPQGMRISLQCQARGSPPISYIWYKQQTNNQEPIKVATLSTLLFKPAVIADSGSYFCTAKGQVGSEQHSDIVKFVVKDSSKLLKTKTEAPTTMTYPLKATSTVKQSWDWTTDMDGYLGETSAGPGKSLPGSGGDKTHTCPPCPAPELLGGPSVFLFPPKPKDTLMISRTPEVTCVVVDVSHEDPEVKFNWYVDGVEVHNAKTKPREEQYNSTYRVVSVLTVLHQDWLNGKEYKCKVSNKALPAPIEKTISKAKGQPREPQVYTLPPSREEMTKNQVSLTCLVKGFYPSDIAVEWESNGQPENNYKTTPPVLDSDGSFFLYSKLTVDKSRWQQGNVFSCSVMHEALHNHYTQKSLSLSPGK

Human VSIG4-L-Fc [3] = biological target: T6, Human VSIG4-L-Fc; assay: ligand blocking of iC3b, IgG
Human VSIG4-S-His [4] = biological target: T2, Human VSIG4-S-His; assay: BLI (Octet), IgG on AHC sensor
Method: (§1) The binding affinity of chimeric antibodies was determined by biolayer interferometry (BLI), using a ForteBio Octet® Red384 system. […] Biosensors were rehydrated prior to the assay in kinetics buffer for 10 minutes and then equilibrated in kinetics buffer for 60 seconds. Antibody was then immobilized for 300 seconds followed by a 120 second baseline wash in fresh kinetics buffer, 300 second analyte association, and 300 second dissociation in the same buffer wells as the baseline wash step. All assay steps occurred at 30° C. with an acquisition rate of 5.0 Hz

Human VSIG4-L-Fc [5] = biological target: T6, Human VSIG4-L-Fc; assay: ELISA, IgG 50 nM on coated antigen;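 further: Mouse-human chimeric IgG4 antibodies incubated 1 h on plate-coated VSIG4 proteins, bound IgG detected with HRP-labelled anti-human IgG, irrelevant antibody and protein as specificity controls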
Human VSIG4-S-Fc = biological target: T7, Human VSIG4-S-Fc (human); assay: ELISA, IgG 50 nM on coated antigen;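 further: Mouse-human chimeric IgG4 antibodies incubated 1 h on plate-coated VSIG4 proteins, bound IgG detected with HRP-labelled anti-human IgG, irrelevant antibody and protein as specificity controls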
T7 construct: short isoform ECD fused to human Fc1; also called hVSIG4-S
T7 sequence (chain, as listed by the source limits assumed): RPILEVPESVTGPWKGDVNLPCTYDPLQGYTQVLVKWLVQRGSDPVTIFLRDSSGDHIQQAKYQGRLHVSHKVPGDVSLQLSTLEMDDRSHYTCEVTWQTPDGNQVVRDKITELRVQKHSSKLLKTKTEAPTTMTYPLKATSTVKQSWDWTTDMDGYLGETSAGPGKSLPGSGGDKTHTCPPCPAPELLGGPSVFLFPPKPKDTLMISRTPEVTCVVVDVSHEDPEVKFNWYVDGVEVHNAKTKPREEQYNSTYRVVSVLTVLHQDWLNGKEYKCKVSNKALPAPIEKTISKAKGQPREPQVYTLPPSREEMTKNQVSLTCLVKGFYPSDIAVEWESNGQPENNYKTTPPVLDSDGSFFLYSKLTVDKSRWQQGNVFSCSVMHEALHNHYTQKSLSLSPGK

[6] = biological target: T1, Cynomolgus Monkey VSIG4-L-His; assay: ELISA, IgG 50 nM on coated antigen;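 further: Mouse-human chimeric IgG4 antibodies incubated 1 h on plate-coated VSIG4 proteins, bound IgG detected with HRP-labelled anti-human IgG, irrelevant antibody and protein as specificity controls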
Mouse VSIG4-His = biological target: T3, Mouse VSIG4-His; assay: ELISA, IgG 50 nM on coated antigen;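 further: Mouse-human chimeric IgG4 antibodies incubated 1 h on plate-coated VSIG4 proteins, bound IgG detected with HRP-labelled anti-human IgG, irrelevant antibody and protein as specificity controls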
Human VSIG4-L-His [7] = biological target: T4, Human VSIG4-L-His; assay: BLI, IgG on AHC sensor, antigen 100 nM
Method: as §1
(§2) The binding affinity of humanized antibodies and the parental chimeric antibodies was determined by biolayer interferometry (BLI), using a ForteBio Octet® Red384 system, as described above.

[8] = biological target: T1, Cynomolgus Monkey VSIG4-L-His; assay: BLI, IgG on AHC sensor, antigen 100 nM
Method: as §1, §2

Human VSIG4-L-His [9] = biological target: T4, Human VSIG4-L-His; assay: BLI (Octet), IgG on AHC sensor, antigen 100 nM
Method: as §1
(§3) Processing parameters included double reference subtraction, with human IgG4 used as an isotype control for reference sensor subtraction and immobilized ligand in kinetics buffer with no analyte used for reference sample subtraction. Y-axis data was aligned to the average baseline step for the last 5 seconds and all steps were inter-step corrected to the start of the dissociation step. High frequency noise was removed using Savitzky-Golay filtering and final fitting was a 1:1 global binding model to both association and dissociation.

[10] = biological target: T1, Cynomolgus Monkey VSIG4-L-His; assay: BLI (Octet), IgG on AHC sensor, antigen 100 nM
Method: as §1, §3

[11] = biological target: T5, Human VSIG4-L-CHO (human VSIG4 long …); assay: flow cytometry, CHO-K1 cells expressing hVSIG4-L
Human VSIG4-L-Fc [12] = biological target: T6, Human VSIG4-L-Fc; assay: BLI binning on hVSIG4-L-Fc, competitor 12A08 first;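 further: normalized to binding of second antibody without first competitor antibody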
Method: (§4) Epitopic diversity of functional antibodies was further assessed by antibody cross-blocking experiments, performed on a ForteBio Octet® Red384 system. […] All assay steps occurred at 30° C. with an acquisition rate of 5.0 Hz.
(§5) Binning results were calculated using ForteBio Data Analysis HT software. Antibody “a” and antibody “b” steps were defined, and the maximum binding calculation was averaged at the last 10% of the step duration. Once the matrix was generated, the antibody “b” binding signal in the absence of any antibody “a” was used to normalize the maximum binding of the competitor antibodies. Hierarchical clustering was set with a similarity metric of Pearson and Lingang Criteria by Mean, and the normalized maximum binding nm shift is reported in Table 9 below.

Human VSIG4-L-Fc [13] = biological target: T6, Human VSIG4-L-Fc; assay: BLI binning on hVSIG4-L-Fc, competitor 12A12 first;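 further: normalized to binding of second antibody without first competitor antibody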
Method: as §4, §5

Human VSIG4-L-Fc [14] = biological target: T6, Human VSIG4-L-Fc; assay: BLI binning on hVSIG4-L-Fc, competitor 13H11 first;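 further: normalized to binding of second antibody without first competitor antibody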
Method: as §4, §5

Human VSIG4-L-Fc [15] = biological target: T6, Human VSIG4-L-Fc; assay: BLI binning on hVSIG4-L-Fc, competitor 14C05 first;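 further: normalized to binding of second antibody without first competitor antibody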
Method: as §4, §5

Human VSIG4-L-Fc [16] = biological target: T6, Human VSIG4-L-Fc; assay: BLI binning on hVSIG4-L-Fc, competitor 14D12 first;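 further: normalized to binding of second antibody without first competitor antibody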
Method: as §4, §5

Human VSIG4-L-Fc [17] = biological target: T6, Human VSIG4-L-Fc; assay: BLI binning on hVSIG4-L-Fc, competitor 15A06 first;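 further: normalized to binding of second antibody without first competitor antibody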
Human VSIG4-L-Fc [18] = biological target: T6, Human VSIG4-L-Fc; assay: BLI binning on hVSIG4-L-Fc, competitor 15C03 first;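 further: normalized to binding of second antibody without first competitor antibody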
Method: as §4, §5

Human VSIG4-L-Fc [19] = biological target: T6, Human VSIG4-L-Fc; assay: BLI binning on hVSIG4-L-Fc, competitor 15C04 first;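 further: normalized to binding of second antibody without first competitor antibody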
Human VSIG4-L-Fc [20] = biological target: T6, Human VSIG4-L-Fc; assay: BLI binning on hVSIG4-L-Fc, competitor 16E03 first;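 further: normalized to binding of second antibody without first competitor antibody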
Method: as §4, §5

Human VSIG4-L-Fc [21] = biological target: T6, Human VSIG4-L-Fc; assay: BLI binning on hVSIG4-L-Fc, competitor 16E10 first;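 further: normalized to binding of second antibody without first competitor antibody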
Method: as §4, §5

Human VSIG4-L-Fc [22] = biological target: T6, Human VSIG4-L-Fc; assay: ligand competition ELISA (FJB), blocked ligand C3b
Human VSIG4-L-Fc [23] = biological target: T6, Human VSIG4-L-Fc; assay: ligand competition ELISA (FJB), blocked ligand iC3b
[24] = biological target: T5, Human VSIG4-L-CHO (human VSIG4 long …); assay: flow cytometry (FJB), 200 nM mAb, huVSIG4-L CHO-K1 cells
[25] = biological target: T5, Human VSIG4-L-CHO (human VSIG4 long …); assay: flow cytometry (FJB), 200 nM mAb, huVSIG4-L CHO-K1 over parental CHO-K1
Human VSIG4-L-His [26] = biological target: T4, Human VSIG4-L-His; assay: SPR (FJB)
Human VSIG4-S-His [27] = biological target: T2, Human VSIG4-S-His; assay: BLI (Octet), IgG on AHC sensor, antigen 100 nM
Method: as §1, §3

Human VSIG4-L-Fc [28] = biological target: T6, Human VSIG4-L-Fc; assay: BLI cross-blocking on hVSIG4-L-Fc, competitor 12A12 first
Human VSIG4-L-Fc [29] = biological target: T6, Human VSIG4-L-Fc; assay: BLI cross-blocking on hVSIG4-L-Fc, competitor 14C05 first
Human VSIG4-L-Fc [30] = biological target: T6, Human VSIG4-L-Fc; assay: BLI cross-blocking on hVSIG4-L-Fc, competitor 16G02 first
Human VSIG4-L-Fc [31] = biological target: T6, Human VSIG4-L-Fc; assay: ligand competition ELISA (FJB), blocked ligand C3b, 200 nM mAb
Human VSIG4-L-Fc [32] = biological target: T6, Human VSIG4-L-Fc; assay: ligand competition ELISA (FJB), blocked ligand iC3b, 200 nM mAb
[33] = biological target: T1, Cynomolgus Monkey VSIG4-L-His; assay: ELISA, IgG 50 nM on coated antigen; ELISA, bivalent IgG on plate-coated cyVSIG4-L (avid format)
Method: Coated microplates were blocked with dried skimmed milk at 4% in PBS. Coated proteins were then incubated with each purified antibody at a concentration of 50 nM for 1 h to allow the binding to the proteins. Binding detection was measured using a goat anti-huIgG monoclonal detection antibody, HRP conjugated (Jackson Immune Research, West Gove, PA). As a control for specificity, an irrelevant antibody and protein were used. OD at 450 nm was determined using a standard absorbance microplate reader.

Kd [1] [nM]	Percent Blocking C3b (Human VSIG4-L-Fc [2]) [%]	binding result (Human VSIG4-S-His [4])	ELISA OD450 (Human VSIG4-L-Fc [5]) [OD450]	ELISA OD450 (Human VSIG4-S-Fc) [OD450]	ELISA OD450 (Mouse VSIG4-His) [OD450]	Kd (Human VSIG4-L-His [9]) [nM]	EC50 [11] [nM]	normalized maximum binding nm shift (Human VSIG4-L-Fc [12]) [normalized]	normalized maximum binding nm shift (Human VSIG4-L-Fc [13]) [normalized]	normalized maximum binding nm shift (Human VSIG4-L-Fc [14]) [normalized]	normalized maximum binding nm shift (Human VSIG4-L-Fc [15]) [normalized]	normalized maximum binding nm shift (Human VSIG4-L-Fc [16]) [normalized]	normalized maximum binding nm shift (Human VSIG4-L-Fc [17]) [normalized]	normalized maximum binding nm shift (Human VSIG4-L-Fc [18]) [normalized]	normalized maximum binding nm shift (Human VSIG4-L-Fc [19]) [normalized]	normalized maximum binding nm shift (Human VSIG4-L-Fc [20]) [normalized]	normalized maximum binding nm shift (Human VSIG4-L-Fc [21]) [normalized]	Binding (200 nM) MFI [24] [MFI]	Binding (200 nM) Fold-Over-Parental [25] [fold]	Binder	other results
20.1	75	no binding (tested: 100 nM)	4.27	0.44	0.048	50.6	1.2	0.7	0.74	0.09	0.74	0.69	0.51	0.86	0.68	0.72	0.95	54300	140	13H11 mouse/human chimeric IgG4 (S228P) kappa (antibody, V domains shown) VH: QIQLVQSGPELKKPGETVKISCKASGYTFENFGMNWVKQAPGKGLKWMGWINTYTGEATYADDFKGRFAFSLETSASTAYLQINNLKNEDTATYFCARDGGFRHFDVWGAGTTVTVSS VL: ETTVTQSPASLSVATGEKVTIRCITSTDIDDDMNWYQQKPGEPPKLLISEGNTLRPGVPSRFSSSGYGTDFVFTIENMLSEDVADYYCLQSDNLPLTFGAGTKLELKR	Percent Blocking iC3b (Human VSIG4-L-Fc [3]): 78%; ELISA OD450 [6]: 4.37 OD450; KD relative to parental chimera (Human VSIG4-L-His [7]): 1 fold; KD relative to parental chimera [8]: 1 fold; Kd [10]: 20.3 nM; IC50 (Human VSIG4-L-Fc [22]): ~7 nM; IC50 (Human VSIG4-L-Fc [23]): 440 nM
5.4	96	–	4.51	4.36	0.055	3.46	4.4	0.75	0.83	0.66	0.11	0.07	0.68	0.38	0.76	0.62	0.87	109000	304	14C05 mouse/human chimeric IgG4 (S228P) kappa (antibody, V domains shown) VH: EVMLVESGPELKKPGETVKISCKASGYTFTNYGMNWVKQAPGKGLKWMGSINTYTGEATYADDFKGRFAFSLETSANTAYLQIDNLKNEDTATYFCARGDYYGRGTWFAYWGQGTLVTVSA VL: ETTVTQSHKFMSTSVGDRVSITCKASQDVSTAVAWYQQKPGQSPKLLIYSASYRYPGVPDRFTGSGSGTDFTFTISSVQAEDLAVYYCQQDYSSPWTFGGGTKLEIKR	Kd (Human VSIG4-L-His [26]): 1.7 nM; ELISA OD450 [6]: 4.52 OD450; KD relative to parental chimera (Human VSIG4-L-His [7]): 1 fold; KD relative to parental chimera [8]: 1 fold; Kd (Human VSIG4-S-His [27]): 2.69 nM; Kd [10]: 30 nM; binding signal (nm shift) (Human VSIG4-L-Fc [28]): 0.83 nm; binding signal (nm shift) (Human VSIG4-L-Fc [29]): 0.11 nm; binding signal (nm shift) (Human VSIG4-L-Fc [30]): 0.16 nm; IC50 (Human VSIG4-L-Fc [22]): 2.4 nM
14.3	–	no binding (tested: 100 nM)	4.38	0.24	0.067	28.5	2.4	0.88	0.91	0.53	0.8	0.79	0.12	0.79	0.15	0.73	0.95	23900	63	15A06 mouse/human chimeric IgG4 (S228P) kappa (antibody, V domains shown) VH: QVQMKQSGPSLVRPSQTLSLTCSVTGDSITSGYWNWIRKFPGDKFEYLGYISYSGFTYYNPSLKSRVSITRDTSKNQYYLQLHSVTTEDTATYYCASSKYGSSLGFPYWGQGTLVTVSA VL: DVVMTQTPLSLPVSLGDQASISCRSSQSLVHSNGNTYLHWYLQKPGQSPKLLIYKVSNRFSGVPDRFSGSGSGTDFTLKISRVEAEDLGVYFCSQSTHVPFTFGSGTKLEIKR	Kd (Human VSIG4-L-His [26]): 15 nM; % Block C3b (200 nM mAb) (Human VSIG4-L-Fc [31]): -24%; % Block iC3b (200 nM mAb) (Human VSIG4-L-Fc [32]): 2%; ELISA OD450 [33]: 4.35 OD450
